US20220010021A1 (Sanofi, published 2022)
Substitutions are numbered along the chain they refer to.

B1: 16H7 light chain variant H33N (antibody, IgG4, V domains shown)
VH: not shown
VL: SYVLTQPPSVSVAPGQTARITCGGNNIGSESVNWYQQKPGQAPVLVVYDDSDRPSGIPERFSGSNSGNTATLTISRVEAGDEADYYCQVWDGNSDHVVFGGGTKLTVLG
notes: IgG4 backbone
B2: 16H7 light chain variant H96K (antibody, IgG4, V domains shown)
VH: not shown
VL: B1 VL with N33H, H96K
notes: IgG4 backbone
B3: 16H7 light chain variant H96R (antibody, IgG4, V domains shown)
VH: not shown
VL: B1 VL with N33H, H96R
notes: IgG4 backbone
B4: 16H7 light chain variant S51N (antibody, IgG4, V domains shown)
VH: not shown
VL: B1 VL with N33H, S51N
notes: IgG4 backbone
B5: 16H7 light chain variant H33V (antibody, IgG4, V domains shown)
VH: not shown
VL: B1 VL with N33V
notes: IgG4 backbone
B6: 16H7 light chain variant N93D (antibody, IgG4, V domains shown)
VH: not shown
VL: B1 VL with N33H, N93D
notes: IgG4 backbone
B7: 16H7 light chain variant H96E (antibody, IgG4, V domains shown)
VH: not shown
VL: B1 VL with N33H, H96E
notes: IgG4 backbone
B8: 16H7 light chain variant H96W (antibody, IgG4, V domains shown)
VH: not shown
VL: B1 VL with N33H, H96W
notes: IgG4 backbone
B9: 16H7 light chain variant N93C (antibody, IgG4, V domains shown)
VH: not shown
VL: B1 VL with N33H, N93C
notes: IgG4 backbone
B10: 16H7 light chain variant N93F (antibody, IgG4, V domains shown)
VH: not shown
VL: B1 VL with N33H, N93F
notes: IgG4 backbone
B11: 16H7 light chain variant H96L (antibody, IgG4, V domains shown)
VH: not shown
VL: B1 VL with N33H, H96L
notes: IgG4 backbone
B12: 16H7 light chain variant H33T (antibody, IgG4, V domains shown)
VH: not shown
VL: B1 VL with N33T
notes: IgG4 backbone
B13: 16H7 light chain variant H33S (antibody, IgG4, V domains shown)
VH: not shown
VL: B1 VL with N33S
notes: IgG4 backbone
B14: 16H7 light chain variant S51R (antibody, IgG4, V domains shown)
VH: not shown
VL: B1 VL with N33H, S51R
notes: IgG4 backbone
B15: 16H7 light chain variant S31N (antibody, IgG4, V domains shown)
VH: not shown
VL: B1 VL with S31N, N33H
notes: IgG4 backbone
B16: 16H7 light chain variant S51I (antibody, IgG4, V domains shown)
VH: not shown
VL: B1 VL with N33H, S51I
notes: IgG4 backbone
B17: 16H7 light chain variant H96G (antibody, IgG4, V domains shown)
VH: not shown
VL: B1 VL with N33H, H96G
notes: IgG4 backbone
B18: 16H7 light chain variant H96T (antibody, IgG4, V domains shown)
VH: not shown
VL: B1 VL with N33H, H96T
notes: IgG4 backbone
B19: 16H7 light chain variant N93Y (antibody, IgG4, V domains shown)
VH: not shown
VL: B1 VL with N33H, N93Y
notes: IgG4 backbone
B20: 16H7 light chain variant H96Y (antibody, IgG4, V domains shown)
VH: not shown
VL: B1 VL with N33H, H96Y
notes: IgG4 backbone
B21: 16H7 light chain variant S51L (antibody, IgG4, V domains shown)
VH: not shown
VL: B1 VL with N33H, S51L
notes: IgG4 backbone
B22: 16H7 light chain variant H96V (antibody, IgG4, V domains shown)
VH: not shown
VL: B1 VL with N33H, H96V
notes: IgG4 backbone
B23: 16H7 light chain variant N93A (antibody, IgG4, V domains shown)
VH: not shown
VL: B1 VL with N33H, N93A
notes: IgG4 backbone
B24: 16H7 light chain variant N93R (antibody, IgG4, V domains shown)
VH: not shown
VL: B1 VL with N33H, N93R
notes: IgG4 backbone
B25: 16H7 light chain variant H96Q (antibody, IgG4, V domains shown)
VH: not shown
VL: B1 VL with N33H, H96Q
notes: IgG4 backbone
B26: 16H7 light chain variant H96D (antibody, IgG4, V domains shown)
VH: not shown
VL: B1 VL with N33H, H96D
notes: IgG4 backbone
B27: 16H7 light chain variant N93S (antibody, IgG4, V domains shown)
VH: not shown
VL: B1 VL with N33H, N93S
notes: IgG4 backbone
B28: 16H7 light chain variant H33Y (antibody, IgG4, V domains shown)
VH: not shown
VL: B1 VL with N33Y
notes: IgG4 backbone
B29: 16H7 light chain variant S31H (antibody, IgG4, V domains shown)
VH: not shown
VL: B1 VL with S31H, N33H
notes: IgG4 backbone
B30: 16H7 light chain variant S51Q (antibody, IgG4, V domains shown)
VH: not shown
VL: B1 VL with N33H, S51Q
notes: IgG4 backbone
B31: 16H7 light chain variant H96S (antibody, IgG4, V domains shown)
VH: not shown
VL: B1 VL with N33H, H96S
notes: IgG4 backbone
B32: 16H7 light chain variant N93V (antibody, IgG4, V domains shown)
VH: not shown
VL: B1 VL with N33H, N93V
notes: IgG4 backbone
B33: 16H7 light chain variant H96N (antibody, IgG4, V domains shown)
VH: not shown
VL: B1 VL with N33H, H96N
notes: IgG4 backbone
B34: 16H7 light chain variant N93T (antibody, IgG4, V domains shown)
VH: not shown
VL: B1 VL with N33H, N93T
notes: IgG4 backbone
B35: 16H7 light chain variant H33Q (antibody, IgG4, V domains shown)
VH: not shown
VL: B1 VL with N33Q
notes: IgG4 backbone

Tests used:
[1] = molecular target: cell surface receptor composed of FGFR1c and co-receptor beta-Klotho (KLB) (human, UniProt P11362 22-822; Q86Z14 1-1044); experiment: cell-based or functional assay; as to Mean E max, Luciferase reporter gene assay: reference of the scale not given here
Chain of cell surface receptor composed of FGFR1c and co-receptor beta-Klotho (KLB) (P11362 22-822, chain 1 of 2): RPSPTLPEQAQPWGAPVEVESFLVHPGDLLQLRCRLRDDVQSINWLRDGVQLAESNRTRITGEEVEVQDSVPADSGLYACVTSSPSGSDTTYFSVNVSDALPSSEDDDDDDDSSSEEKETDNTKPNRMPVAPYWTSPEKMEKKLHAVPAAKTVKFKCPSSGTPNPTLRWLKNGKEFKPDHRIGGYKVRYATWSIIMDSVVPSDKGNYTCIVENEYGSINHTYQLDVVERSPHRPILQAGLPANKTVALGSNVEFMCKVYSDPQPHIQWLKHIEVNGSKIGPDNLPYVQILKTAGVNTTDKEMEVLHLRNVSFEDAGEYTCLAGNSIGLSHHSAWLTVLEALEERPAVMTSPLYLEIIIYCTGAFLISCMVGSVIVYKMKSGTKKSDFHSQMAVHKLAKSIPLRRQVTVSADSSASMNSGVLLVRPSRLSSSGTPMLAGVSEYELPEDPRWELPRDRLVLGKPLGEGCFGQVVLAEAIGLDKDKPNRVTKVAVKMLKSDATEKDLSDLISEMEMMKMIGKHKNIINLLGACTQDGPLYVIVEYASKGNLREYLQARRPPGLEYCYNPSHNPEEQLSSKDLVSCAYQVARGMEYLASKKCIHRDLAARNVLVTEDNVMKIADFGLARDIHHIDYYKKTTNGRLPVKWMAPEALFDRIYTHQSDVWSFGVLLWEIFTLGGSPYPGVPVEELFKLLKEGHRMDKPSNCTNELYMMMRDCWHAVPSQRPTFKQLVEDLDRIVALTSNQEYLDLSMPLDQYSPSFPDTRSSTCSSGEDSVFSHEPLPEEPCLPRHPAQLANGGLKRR
Chain of cell surface receptor composed of FGFR1c and co-receptor beta-Klotho (KLB) (Q86Z14 whole entry, chain 2 of 2): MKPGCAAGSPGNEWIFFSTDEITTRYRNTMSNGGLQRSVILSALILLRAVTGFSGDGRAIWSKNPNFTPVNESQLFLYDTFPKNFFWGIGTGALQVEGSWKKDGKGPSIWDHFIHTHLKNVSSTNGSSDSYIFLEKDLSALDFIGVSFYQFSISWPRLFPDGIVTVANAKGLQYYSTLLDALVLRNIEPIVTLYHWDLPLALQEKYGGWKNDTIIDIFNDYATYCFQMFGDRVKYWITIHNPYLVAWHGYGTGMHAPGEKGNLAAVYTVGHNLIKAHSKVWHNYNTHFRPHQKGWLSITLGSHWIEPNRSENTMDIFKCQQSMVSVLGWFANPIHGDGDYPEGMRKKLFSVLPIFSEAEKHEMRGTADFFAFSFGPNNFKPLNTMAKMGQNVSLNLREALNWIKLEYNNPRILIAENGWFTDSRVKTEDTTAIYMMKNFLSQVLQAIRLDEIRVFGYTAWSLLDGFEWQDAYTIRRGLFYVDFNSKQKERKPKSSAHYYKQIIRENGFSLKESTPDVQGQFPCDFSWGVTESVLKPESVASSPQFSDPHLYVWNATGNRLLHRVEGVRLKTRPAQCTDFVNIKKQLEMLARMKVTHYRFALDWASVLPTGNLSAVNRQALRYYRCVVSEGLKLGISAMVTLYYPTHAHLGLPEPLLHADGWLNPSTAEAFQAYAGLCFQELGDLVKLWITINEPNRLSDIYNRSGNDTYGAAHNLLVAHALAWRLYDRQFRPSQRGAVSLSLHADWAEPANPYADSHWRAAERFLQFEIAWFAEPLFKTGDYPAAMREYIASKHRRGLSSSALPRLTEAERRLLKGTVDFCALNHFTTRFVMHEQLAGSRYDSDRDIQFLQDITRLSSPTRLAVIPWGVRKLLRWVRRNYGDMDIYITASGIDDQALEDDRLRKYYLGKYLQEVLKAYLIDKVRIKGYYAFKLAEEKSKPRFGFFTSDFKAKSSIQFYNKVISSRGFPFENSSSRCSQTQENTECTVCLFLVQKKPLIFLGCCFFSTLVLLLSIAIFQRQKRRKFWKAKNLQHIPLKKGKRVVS

[2] = molecular target: T1, human beta-Klotho (KLB) (human, UniProt Q86Z14 53-997); experiment: BLI off-rate screening (Octet), crude supernatant;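 also: supernatants tested at 25 µg/mL, dissociation from biosensors recorded in D-PBS with 0.1% BSA over 1800 s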
T1 construct: Bought protein; also called human KLB; β-Klotho
T1 sequence (looked up): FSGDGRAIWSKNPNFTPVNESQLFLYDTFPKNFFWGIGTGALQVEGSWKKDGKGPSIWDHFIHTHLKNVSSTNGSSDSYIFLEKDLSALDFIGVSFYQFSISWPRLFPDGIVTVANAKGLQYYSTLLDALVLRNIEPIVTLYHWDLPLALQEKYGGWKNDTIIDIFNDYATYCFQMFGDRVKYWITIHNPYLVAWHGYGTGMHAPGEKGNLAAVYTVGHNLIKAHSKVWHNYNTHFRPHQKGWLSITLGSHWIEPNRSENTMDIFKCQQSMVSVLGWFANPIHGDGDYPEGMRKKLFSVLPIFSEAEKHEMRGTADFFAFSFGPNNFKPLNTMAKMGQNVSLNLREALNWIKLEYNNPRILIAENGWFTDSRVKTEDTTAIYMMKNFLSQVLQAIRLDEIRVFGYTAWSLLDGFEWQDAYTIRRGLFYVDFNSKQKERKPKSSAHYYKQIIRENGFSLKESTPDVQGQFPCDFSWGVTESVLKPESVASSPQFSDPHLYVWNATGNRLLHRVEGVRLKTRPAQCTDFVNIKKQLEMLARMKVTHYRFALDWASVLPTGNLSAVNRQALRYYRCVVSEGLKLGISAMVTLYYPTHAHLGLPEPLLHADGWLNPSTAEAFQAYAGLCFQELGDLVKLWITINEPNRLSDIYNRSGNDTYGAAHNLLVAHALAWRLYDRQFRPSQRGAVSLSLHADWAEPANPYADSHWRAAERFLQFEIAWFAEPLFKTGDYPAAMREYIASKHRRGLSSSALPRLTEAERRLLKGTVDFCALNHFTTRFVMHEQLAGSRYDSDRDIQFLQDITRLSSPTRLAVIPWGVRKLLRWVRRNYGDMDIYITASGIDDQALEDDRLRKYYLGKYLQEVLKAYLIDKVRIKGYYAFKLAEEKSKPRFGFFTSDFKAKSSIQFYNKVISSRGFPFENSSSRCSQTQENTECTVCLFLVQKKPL

Binder | Mean E max, Luciferase reporter gene assay [1] | Mean EC50, Luciferase reporter gene assay [1] | koff [2]
B1 | 113% | 0.165 nM | 0.00011 s⁻¹
B2 | 98% | 0.179 nM | 6.4e-05 s⁻¹
B3 | 102% | 0.095 nM | 0.00014 s⁻¹
B4 | 100% | 0.113 nM | 5.3e-05 s⁻¹
B5 | 104% | 0.147 nM | 0.00018 s⁻¹
B6 | 108% | 0.123 nM | 3.8e-05 s⁻¹
B7 | 100% | 0.122 nM | 1.1e-05 s⁻¹
B8 | 103% | 0.155 nM | 0.00012 s⁻¹
B9 | 107% | 0.148 nM | 5.8e-05 s⁻¹
B10 | 100% | 0.165 nM | 2.2e-06 s⁻¹
B11 | 98% | 0.176 nM | 0.00013 s⁻¹
B12 | 99% | 0.114 nM | 0.00014 s⁻¹
B13 | 103% | – | 4.6e-06 s⁻¹
B14 | 98% | 0.103 nM | 0.00012 s⁻¹
B15 | 99% | 0.124 nM | 7.6e-05 s⁻¹
B16 | 102% | 0.097 nM | 5e-05 s⁻¹
B17 | 95% | 0.13 nM | 0.00015 s⁻¹
B18 | 110% | 0.11 nM | 1.8e-05 s⁻¹

Binder | Mean E max, Luciferase reporter gene assay [1] | Mean EC50, Luciferase reporter gene assay [1] | koff [2]
B19 | 105% | 0.108 nM | 6.5e-05 s⁻¹
B20 | 103% | 0.134 nM | 6.9e-05 s⁻¹
B21 | 97% | 0.099 nM | 9.6e-05 s⁻¹
B22 | 91% | 0.13 nM | 4.1e-05 s⁻¹
B23 | 101% | 0.108 nM | 7.5e-06 s⁻¹
B24 | 100% | 0.186 nM | 5e-05 s⁻¹
B25 | 104% | 0.106 nM | 5e-05 s⁻¹
B26 | 100% | 0.111 nM | 2.2e-05 s⁻¹
B27 | 101% | 0.105 nM | 3.4e-05 s⁻¹
B28 | 98% | 0.12 nM | 7.5e-05 s⁻¹
B29 | 110% | 0.158 nM | 4.5e-05 s⁻¹
B30 | 107% | 0.115 nM | 6.5e-05 s⁻¹
B31 | 102% | 0.097 nM | 3e-05 s⁻¹
B32 | 108% | 0.139 nM | 4e-05 s⁻¹
B33 | 112% | 0.143 nM | 4.4e-05 s⁻¹
B34 | 103% | 0.161 nM | 3.1e-05 s⁻¹
B35 | 101% | 0.131 nM | 4.4e-05 s⁻¹
